Source: article PMC10899635, “Q586B2 is a crucial virulence factor during the early stages of Trypanosoma brucei infection that is conserved amongst trypanosomatids” (Nature Communications, 2024)
Like-named read-outs stand apart in the source and are kept apart here.

Columns and labels:
[1] = biological target: T1, homologous protein in T. cruzi (Trypanosoma cruzi (assayed strain not …, UniProt Q4D6Q6)); test: flow cytometry on cells; 5 µg HA-tagged Nb on 100 µl of 10^7/ml purified, fixed and permeabilized parasites, on ice 30 min; detected with Alexa Fluor 488 labeled anti-HA IgG; settings: one partner purified
T1 construct: protein of T. cruzi homologous to Q586B2, detected by Nb39; also called Q4D6Q6; source: endogenous, T. cruzi parasites, fixed and permeabilized

[2] = biological target: T2, native Q586B2 (Trypanosoma brucei brucei AnTat1.1E and …, UniProt Q586B2); test: ELISA; sandwich ELISA: Nb39 coated at 5 µg/ml in PBS; culture medium of in vitro cultured parasites or serum of infected mice (day 6 p.i., diluted 1/2), 2 h at 37 °C; detected with biotinylated Nb39 and streptavidin-HRP; settings: one partner purified
T2 construct: Q586B2 of Trypanosoma brucei brucei, gene Tb927.6.4140, 115 aa; endogenous protein of bloodstream, procyclic and metacyclic forms; also called native Q586B2 protein; source: endogenous, T. b. brucei parasites (AnTat1.1E, 90:13), fixed and permeabilized; also in the culture medium (secretome) of parasites and in serum of infected mice

[3] = biological target: T3, recombinant Q586B2 protein (Trypanosoma brucei brucei)
T3 chain: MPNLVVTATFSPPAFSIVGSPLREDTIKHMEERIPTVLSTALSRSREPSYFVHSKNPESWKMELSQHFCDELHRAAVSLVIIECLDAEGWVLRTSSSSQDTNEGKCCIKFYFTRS

[4] = biological target: T2, native Q586B2

B1: Nb39 (VHH)
VHH: QVQLQESGGGLVQPGGSLRLSCTASGSIFSGYAMGWYRQAPGKQRELVAGITSGGSTIYAGSVKGRFTISRDNAKNTVYLQMNSLKPEDTAVYYCKNGTYYSARDYWGQGTQVTVSS
notes: nanobody from a llama immunized with recombinant Q586B2; A biotinylated Nb39 served as detecting agent in the sandwich ELISA; also called anti-Q586B2 Nb39; source: E. coli WK6, periplasmic extraction, purified (His-Trap IMAC, Superdex 75); not shown: HA, C-terminal, kept
B1: binds [1]; binds [2].

B2: Nb36 (VHH)
VHH: QVQLQESGGGLVQPGGSLRLSCAASGFAFSFYWMNWVRQAPGKGLEWVSAINSGGGSTYYADSVKGRFTISRDNAKNTLYLQMNSLKPEDTAVYYCAKGIVQRGEYYGMDYWGKGTQVTVSS
B2: binds [3]; binds [4].

B3: Nb58 (VHH)
VHH: QVQLQESGGGLVQPGGSLRLSCAASGRSISSIYAMGWYRQAPGKQRELVARLTSGGSSNYADSVKGRFTITRDNAQNTVYLQMNSLKPEDTAVYYCNAEPSRWWLDDDYWGQGTQVTVSS
B3: binds [3]; binds [4].

B4: Nb32 (VHH)
VHH: QVQLQESGGGLVQPGGSLRLSCAASGFTFSAYAMSWVRQAPGKGLEWVSTIDSGGGSTYYADSVKGRFTISRDNAKKTLYLHMNSLKPEDTAVYYCAKRGYSDYARHVWGQGTQVTVSS
B4: binds [3]; binds [4].

B5: Nb41 (VHH)
VHH: QVQLQESGGGLVQAGGSLRLSCAASGRTFSSYAMGWFRQAPGKEREFIALISWIGGSTAYADSVKGRFTISRDNAKNTLYLQMNSLKPEDTAVYYCATDRIGRHRGPGTQVTVSS
B5: binds [3]; binds [4].

B6: Nb34 (VHH)
VHH: QVQLQESGGGLVQPGGSLRLSCAASGFTFSNSPMNWVRQAPGKGLEWVSAINSGGGSTYYADSVKGRFTISRDNAKNTLYLQMNSLKPEDTAVYYCAKGGRTYYSGSYYSWGMDYWGKGTQVTVSS
B6: binds [3]; binds [4].

B7: Nb53 (VHH)
VHH: QVQLQESGGGSVQAGGSLRLSCSASGYTYSSHCTAWFRQAPGKEREALAAINSRSGTTYYADSVKGRFTISQDNTKNTAYLQMNSLKPEDTATYFCAALSFGCTGPLASLGQGTQVTVSS
B7: binds [3]; binds [4].
